Tested on: Escherichia coli TOP10
Assay: shrunken log2 fold change of peptide-encoding DNA abundance (4.5 h post-induction vs induction); higher = less antimicrobial activity (less host growth inhibition)
Conditions: time post-induction: 4.5 h; library: site-saturation at positions 5, 18, 19, 20
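Note: peptides expressed intracellularly from a pBAD plasmid library in pooled LB shake-flask culture, induced with 0.3% L-arabinose, DNA abundance read by NGS, three biological replicates, DESeq2 with apeglm shrinkage.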

In order of falling “shrunken log2 fold change” value:
1. RRIRRRPPRLPRPRPRPRTWPRP  1.84
2. RRIRGRPPRLPRPRPRPEACPRP  1.11
3. RRIRRRPPRLPRPRPRPFFAPRP  0.98
4. RRIRGRPPRLPRPRPRPEVVPRP  0.918
5. RRIRMRPPRLPRPRPRPKTVPRP  0.847
6. RRIRSRPPRLPRPRPRPTRSPRP  0.784
7. RRIRARPPRLPRPRPRPPGRPRP  0.742
8. RRIRNRPPRLPRPRPRPGEIPRP  0.627
9. RRIRMRPPRLPRPRPRPPWLPRP  0.568
10. RRIRLRPPRLPRPRPRPAHPPRP  0.522
11. RRIRGRPPRLPRPRPRPKCVPRP  0.505
12. RRIRQRPPRLPRPRPRPHAAPRP  0.465
13. RRIRKRPPRLPRPRPRPNGWPRP  0.452
14. RRIRGRPPRLPRPRPRPLVNPRP  0.4
15. RRIRDRPPRLPRPRPRPGPKPRP  0.386
16. RRIRNRPPRLPRPRPRPRAMPRP  0.37
17. RRIRKRPPRLPRPRPRPGWDPRP  0.364
18. RRIRGRPPRLPRPRPRPKPYPRP  0.332
19. RRIRARPPRLPRPRPRPWGVPRP  0.329
20. RRIRTRPPRLPRPRPRPRNWPRP  0.325
21. RRIRDRPPRLPRPRPRPLEIPRP  0.287
22. RRIRPRPPRLPRPRPRPRANPRP  0.286
23. RRIRGRPPRLPRPRPRPNCFPRP  0.268
24. RRIRARPPRLPRPRPRPVLSPRP  0.26
25. RRIRLRPPRLPRPRPRPRGCPRP  0.246
26. RRIRFRPPRLPRPRPRPGWFPRP  0.237
27. RRIRMRPPRLPRPRPRPSGKPRP  0.222
28. RRIRARPPRLPRPRPRPLSCPRP  0.214
29. RRIRMRPPRLPRPRPRPQHEPRP  0.212
30. RRIRARPPRLPRPRPRPDFVPRP  0.205
31. RRIRCRPPRLPRPRPRPPKHPRP  0.203
32. RRIRPRPPRLPRPRPRPRNWPRP  0.195
33. RRIRGRPPRLPRPRPRPSDEPRP  0.178
34. RRIRRRPPRLPRPRPRPRDCPRP  0.177
35. RRIRNRPPRLPRPRPRPPFFPRP  0.162
36. RRIRMRPPRLPRPRPRPCITPRP  0.156
37. RRIRPRPPRLPRPRPRPHDIPRP  0.152
38. RRIRLRPPRLPRPRPRPLSGPRP  0.15
39. RRIRPRPPRLPRPRPRPPFVPRP  0.139
40. RRIRVRPPRLPRPRPRPCAKPRP  0.128
41. RRIRVRPPRLPRPRPRPSANPRP  0.122
42. RRIRRRPPRLPRPRPRPCTEPRP  0.106
43. RRIRRRPPRLPRPRPRPKQPPRP  0.0672
44. RRIRKRPPRLPRPRPRPTQKPRP  0.0634
45. RRIRQRPPRLPRPRPRPECYPRP  0.0583
46. RRIRVRPPRLPRPRPRPCWVPRP  0.0559
47. RRIRHRPPRLPRPRPRPSHPPRP  0.0558
48. RRIRCRPPRLPRPRPRPAFQPRP  0.0486
49. RRIRCRPPRLPRPRPRPWWFPRP  0.0459
50. RRIRTRPPRLPRPRPRPVDSPRP  0.0391
51. RRIRCRPPRLPRPRPRPEACPRP  0.0368
52. RRIRPRPPRLPRPRPRPWASPRP  0.0361
53. RRIRWRPPRLPRPRPRPHGCPRP  0.0126
54. RRIRCRPPRLPRPRPRPQACPRP  0.00494
55. RRIRYRPPRLPRPRPRPGKEPRP  0.0011
56. RRIRIRPPRLPRPRPRPAQKPRP  -0.00244
57. RRIRYRPPRLPRPRPRPLIDPRP  -0.00288
58. RRIRQRPPRLPRPRPRPWIKPRP  -0.0062
59. RRIRMRPPRLPRPRPRPHGMPRP  -0.0062
60. RRIRKRPPRLPRPRPRPQECPRP  -0.00957
61. RRIRLRPPRLPRPRPRPMNRPRP  -0.0112
62. RRIRNRPPRLPRPRPRPAIQPRP  -0.0231
63. RRIRVRPPRLPRPRPRPRCGPRP  -0.0269
64. RRIRARPPRLPRPRPRPTWKPRP  -0.0384
65. RRIRFRPPRLPRPRPRPCGCPRP  -0.0484
66. RRIRGRPPRLPRPRPRPPVIPRP  -0.0488
67. RRIRSRPPRLPRPRPRPQFRPRP  -0.0597
68. RRIRQRPPRLPRPRPRPETLPRP  -0.0597
69. RRIRMRPPRLPRPRPRPQIFPRP  -0.0615
70. RRIRMRPPRLPRPRPRPIYMPRP  -0.0618
71. RRIRERPPRLPRPRPRPQVWPRP  -0.0702
72. RRIRNRPPRLPRPRPRPCNMPRP  -0.0735
73. RRIRSRPPRLPRPRPRPQMTPRP  -0.0755
74. RRIRFRPPRLPRPRPRPLTAPRP  -0.0807
75. RRIRFRPPRLPRPRPRPEVAPRP  -0.088
76. RRIRTRPPRLPRPRPRPLRNPRP  -0.0969
77. RRIRTRPPRLPRPRPRPIACPRP  -0.0974
78. RRIRGRPPRLPRPRPRPHDFPRP  -0.0983
79. RRIRNRPPRLPRPRPRPFVMPRP  -0.0984
80. RRIRRRPPRLPRPRPRPYDGPRP  -0.101
81. RRIRSRPPRLPRPRPRPKLNPRP  -0.103
82. RRIRCRPPRLPRPRPRPAERPRP  -0.109
83. RRIRSRPPRLPRPRPRPLSMPRP  -0.115
84. RRIRSRPPRLPRPRPRPWNRPRP  -0.125
85. RRIRPRPPRLPRPRPRPTELPRP  -0.126
86. RRIRYRPPRLPRPRPRPHLMPRP  -0.126
87. RRIRHRPPRLPRPRPRPVPFPRP  -0.136
88. RRIRSRPPRLPRPRPRPSKGPRP  -0.142
89. RRIRRRPPRLPRPRPRPLSCPRP  -0.146
90. RRIRYRPPRLPRPRPRPGFTPRP  -0.149
91. RRIRWRPPRLPRPRPRPQKDPRP  -0.154
92. RRIRQRPPRLPRPRPRPKQLPRP  -0.156
93. RRIRLRPPRLPRPRPRPQYFPRP  -0.158
94. RRIRARPPRLPRPRPRPSIMPRP  -0.178
95. RRIRARPPRLPRPRPRPAVIPRP  -0.178
96. RRIRVRPPRLPRPRPRPQKEPRP  -0.178
97. RRIRQRPPRLPRPRPRPNKPPRP  -0.195
98. RRIRYRPPRLPRPRPRPHQIPRP  -0.201
99. RRIRRRPPRLPRPRPRPCILPRP  -0.208
100. RRIRHRPPRLPRPRPRPFLTPRP  -0.217
101. RRIRCRPPRLPRPRPRPHLTPRP  -0.229
102. RRIRQRPPRLPRPRPRPNYPPRP  -0.239
103. RRIRHRPPRLPRPRPRPRKMPRP  -0.246
104. RRIRNRPPRLPRPRPRPQHDPRP  -0.25
105. RRIRHRPPRLPRPRPRPQYKPRP  -0.252
106. RRIRQRPPRLPRPRPRPLCLPRP  -0.253
107. RRIRSRPPRLPRPRPRPQDVPRP  -0.277
108. RRIRSRPPRLPRPRPRPNMPPRP  -0.278
109. RRIRARPPRLPRPRPRPHNYPRP  -0.303
110. RRIRERPPRLPRPRPRPLDVPRP  -0.304
111. RRIRHRPPRLPRPRPRPYSLPRP  -0.319
112. RRIRGRPPRLPRPRPRPHEYPRP  -0.325
113. RRIRQRPPRLPRPRPRPWNDPRP  -0.373
114. RRIRERPPRLPRPRPRPIIQPRP  -0.386
115. RRIRHRPPRLPRPRPRPYAMPRP  -0.416
116. RRIRCRPPRLPRPRPRPTDTPRP  -0.438
117. RRIRYRPPRLPRPRPRPKQIPRP  -0.456
118. RRIRVRPPRLPRPRPRPFAYPRP  -0.528
119. RRIRARPPRLPRPRPRPYAGPRP  -0.534
120. RRIRYRPPRLPRPRPRPQWHPRP  -0.638
121. RRIRDRPPRLPRPRPRPWYGPRP  -0.87
122. RRIRFRPPRLPRPRPRPHMWPRP  -0.951
123. RRIRIRPPRLPRPRPRPFNQPRP  -0.977
124. RRIRNRPPRLPRPRPRPYNSPRP  -1.61
125. RRIRIRPPRLPRPRPRPAYKPRP  -1.89
